In the Human Domainome abundance scans (Beltran et al. 2025):
± gives the uncertainty stated by the source.

B1: Gamma-crystallin S, residues 96 to 176; numbered along this chain, P22914 (parent)
chain: IQIFEKGDFSGQMYETTEDCPSIMEQFHMREIHSCKVLEGVWIFYELPNYRGRQYLLDKKEYRKPIDWGAASPAVQSFRRI

Variants of: B1
Assay: abundance fitness (aPCA) (normalised: wild type 0, dead -1); higher = more abundant; growth selection in yeast, the domain comes from the species named
Conditions: Homo sapiens
I3Y showed an abundance fitness of -0.286 ± 0.1.
Work on I3N yielded an abundance fitness of -0.627 ± 0.14.
I3Q gave an abundance fitness of -1.08 ± 0.23.
I3F gave an abundance fitness of 0.031 ± 0.11.
With I3A the abundance fitness was -0.141 ± 0.061.
For Y50Q, the abundance fitness was -0.356 ± 0.047.
For Y50M, the abundance fitness was -0.072 ± 0.045.
With Y50E the abundance fitness was -0.559 ± 0.03.
Variant Y50L has an abundance fitness of -0.351 ± 0.03.
In the case of Y50D, the abundance fitness is reported as -0.823 ± 0.077.
Variant M29A has an abundance fitness of 0.048 ± 0.046.
With M29G the abundance fitness was 0.053 ± 0.045.
M29F gave an abundance fitness of 0.036 ± 0.076.
With M29Y the abundance fitness was 0.025 ± 0.14.
Variant M29E has an abundance fitness of 0.109 ± 0.078.
E31C gave an abundance fitness of -0.13 ± 0.12.
E31H showed an abundance fitness of 0.069 ± 0.14.
E31W gave an abundance fitness of 0.084 ± 0.093.
With E31S the abundance fitness was -0.034 ± 0.068.
Variant E31P has an abundance fitness of -0.056 ± 0.094.
In the case of E31V, the abundance fitness is reported as 0.072 ± 0.045.
Variant E46R has an abundance fitness of -0.137 ± 0.053.
Variant E46T has an abundance fitness of -0.13 ± 0.096.
Work on E46M yielded an abundance fitness of -0.21 ± 0.091.
Work on E46H yielded an abundance fitness of -0.047 ± 0.21.
Work on E46D yielded an abundance fitness of -0.476 ± 0.26.
Variant E46Q has an abundance fitness of 0.034 ± 0.1.
With E46W the abundance fitness was -0.875 ± 0.11.
E46V showed an abundance fitness of -0.386 ± 0.059.
In the case of R79Q, the abundance fitness is reported as -0.058 ± 0.33.
For R79G, the abundance fitness was -0.413 ± 0.14.
C20T gave an abundance fitness of -0.086 ± 0.056.
Work on C20G yielded an abundance fitness of -0.352 ± 0.053.
With C20R the abundance fitness was -0.235 ± 0.049.
Work on C20H yielded an abundance fitness of -0.398 ± 0.19.
I66E gave an abundance fitness of 0.007 ± 0.16.
For I66G, the abundance fitness was -0.074 ± 0.083.
In the case of I66A, the abundance fitness is reported as -0.032 ± 0.18.
I66M gave an abundance fitness of -0.022 ± 0.45.
For V37Q, the abundance fitness was -0.105 ± 0.057.
V37I showed an abundance fitness of -0.142 ± 0.12.
V37A gave an abundance fitness of 0.081 ± 0.039.
Work on V37N yielded an abundance fitness of 0.087 ± 0.11.
With V37D the abundance fitness was -0.166 ± 0.066.
Work on V37T yielded an abundance fitness of 0.004 ± 0.043.
With V37Y the abundance fitness was -0.769 ± 0.21.
Work on V37G yielded an abundance fitness of -0.075 ± 0.04.
With K60M the abundance fitness was 0.078 ± 0.17.
Variant K60P has an abundance fitness of -0.154 ± 0.18.
For K60E, the abundance fitness was -0.049 ± 0.27.
S10Y gave an abundance fitness of 0.068 ± 0.089.
In the case of S10C, the abundance fitness is reported as -0.081 ± 0.088.
For S10Q, the abundance fitness was 0.022 ± 0.069.
For H33R, the abundance fitness was -0.047 ± 0.037.
With H33I the abundance fitness was -0.002 ± 0.08.
In the case of H33Q, the abundance fitness is reported as -0.023 ± 0.067.
In the case of A70D, the abundance fitness is reported as -0.017 ± 0.16.
A70V showed an abundance fitness of -0.003 ± 0.11.
A70Y gave an abundance fitness of 0.258 ± 0.19.
With A70G the abundance fitness was 0.108 ± 0.099.
E5P gave an abundance fitness of -0.01 ± 0.065.
With E5R the abundance fitness was -0.002 ± 0.047.
With E5L the abundance fitness was 0.013 ± 0.051.
E5W showed an abundance fitness of 0.006 ± 0.072.
E5C gave an abundance fitness of -0.022 ± 0.064.
In the case of S72C, the abundance fitness is reported as -0.107 ± 0.3.
T16Q showed an abundance fitness of -0.108 ± 0.13.
With T16D the abundance fitness was -0.002 ± 0.13.
With T16N the abundance fitness was 0.024 ± 0.13.
For T16V, the abundance fitness was -0.035 ± 0.057.
Q12E gave an abundance fitness of -0.053 ± 0.059.
With Q12N the abundance fitness was 0.09 ± 0.095.
Q12L gave an abundance fitness of -0.014 ± 0.047.
Q12P showed an abundance fitness of 0.013 ± 0.059.
Q12Y showed an abundance fitness of 0.035 ± 0.13.
For P21E, the abundance fitness was -0.028 ± 0.059.
Work on P21L yielded an abundance fitness of -0.002 ± 0.048.
For P21F, the abundance fitness was 0.075 ± 0.083.
Variant P21S has an abundance fitness of 0.019 ± 0.081.
P21D showed an abundance fitness of -0.063 ± 0.08.
Work on Y62G yielded an abundance fitness of -0.075 ± 0.34.
Y62V gave an abundance fitness of -0.184 ± 0.16.
Work on Y62N yielded an abundance fitness of 0.002 ± 0.17.
Y62C gave an abundance fitness of -0.162 ± 0.34.
Y62M gave an abundance fitness of 0.116 ± 0.15.
F27G showed an abundance fitness of 0.017 ± 0.04.
F27Y showed an abundance fitness of -0.011 ± 0.15.
With F27A the abundance fitness was 0.033 ± 0.047.
Work on F27V yielded an abundance fitness of 0.014 ± 0.053.
F27P showed an abundance fitness of -0.001 ± 0.081.
With S77P the abundance fitness was -0.457 ± 0.23.
Variant Q2D has an abundance fitness of -0.053 ± 0.084.
Q2T showed an abundance fitness of -0.066 ± 0.087.
Q2V gave an abundance fitness of -0.041 ± 0.056.
With Q2C the abundance fitness was 0.027 ± 0.13.
With Q2H the abundance fitness was 0.088 ± 0.086.
With Q2A the abundance fitness was -0.075 ± 0.042.
In the case of G52F, the abundance fitness is reported as -0.246 ± 0.36.
G52R gave an abundance fitness of -0.766 ± 0.084.
G52E showed an abundance fitness of -0.949 ± 0.2.
With G52T the abundance fitness was -0.95 ± 0.19.
With G52W the abundance fitness was -1.01 ± 0.17.
G52S gave an abundance fitness of -0.457 ± 0.068.
F44C showed an abundance fitness of 0.035 ± 0.068.
Work on F44P yielded an abundance fitness of -1.11 ± 0.45.
F44G showed an abundance fitness of 0.015 ± 0.04.
Variant F44W has an abundance fitness of -0.141 ± 0.075.
Work on F44Y yielded an abundance fitness of -0.104 ± 0.12.
Variant F44Q has an abundance fitness of -0.602 ± 0.097.
For F44R, the abundance fitness was -1.02 ± 0.086.
D8P gave an abundance fitness of -0.012 ± 0.062.
For D8R, the abundance fitness was 0.081 ± 0.035.
Variant D8N has an abundance fitness of 0.074 ± 0.087.
With D8L the abundance fitness was 0.074 ± 0.038.
For R80A, the abundance fitness was -0.381 ± 0.27.
For R80E, the abundance fitness was -0.253 ± 0.28.
Work on I32C yielded an abundance fitness of 0.015 ± 0.088.
I32F gave an abundance fitness of 0.09 ± 0.11.
For I32L, the abundance fitness was 0.025 ± 0.07.
Variant K6T has an abundance fitness of 0.007 ± 0.095.
Work on K6A yielded an abundance fitness of 0.007 ± 0.066.
E18I showed an abundance fitness of 0.079 ± 0.15.
Work on V75A yielded an abundance fitness of -0.021 ± 0.16.
Work on V75T yielded an abundance fitness of -0.211 ± 0.15.
In the case of V75W, the abundance fitness is reported as -0.105 ± 0.16.
Work on G40D yielded an abundance fitness of -0.012 ± 0.1.
Work on G40V yielded an abundance fitness of -1.06 ± 0.16.
Variant G40C has an abundance fitness of -0.158 ± 0.086.
Work on G40H yielded an abundance fitness of -0.252 ± 0.14.
G40N showed an abundance fitness of -0.14 ± 0.14.
For G40F, the abundance fitness was -0.261 ± 0.13.
I1T gave an abundance fitness of -0.191 ± 0.13.
I1N gave an abundance fitness of -0.968 ± 0.37.
For W68C, the abundance fitness was -0.026 ± 0.18.
In the case of W68S, the abundance fitness is reported as 0.006 ± 0.085.
Work on W68R yielded an abundance fitness of -0.169 ± 0.11.
For Y14R, the abundance fitness was -0.004 ± 0.056.
Variant Y14V has an abundance fitness of -0.002 ± 0.072.
Work on Y14T yielded an abundance fitness of 0.086 ± 0.078.
For Y14P, the abundance fitness was -0.993 ± 0.22.
Y14D gave an abundance fitness of -0.01 ± 0.095.
Y14M showed an abundance fitness of -0.166 ± 0.11.
With Y14C the abundance fitness was -0.027 ± 0.077.
For Y14K, the abundance fitness was -0.009 ± 0.13.
Variant R30F has an abundance fitness of 0.005 ± 0.072.
R30M showed an abundance fitness of 0.047 ± 0.076.
Variant R30K has an abundance fitness of 0.055 ± 0.078.
Variant R30A has an abundance fitness of 0.061 ± 0.046.
For R30Y, the abundance fitness was -0.02 ± 0.1.
With T17Y the abundance fitness was -0.352 ± 0.17.
Variant T17G has an abundance fitness of -0.013 ± 0.049.
Work on T17D yielded an abundance fitness of -0.051 ± 0.1.
For T17M, the abundance fitness was -0.059 ± 0.09.
Y55F gave an abundance fitness of 0.117 ± 0.16.
Work on Y55G yielded an abundance fitness of -0.529 ± 0.25.
Y55R showed an abundance fitness of 0.055 ± 0.18.
K64H gave an abundance fitness of -0.372 ± 0.29.
For K64V, the abundance fitness was 0.002 ± 0.12.
K64P showed an abundance fitness of -0.215 ± 0.15.
With K64A the abundance fitness was 0.034 ± 0.34.
In the case of K64C, the abundance fitness is reported as -0.146 ± 0.16.
Q26P gave an abundance fitness of -0.021 ± 0.092.
With Q26K the abundance fitness was -0.079 ± 0.12.
With G7R the abundance fitness was 0.052 ± 0.033.
With G7P the abundance fitness was 0.007 ± 0.066.
Variant G7F has an abundance fitness of 0.084 ± 0.12.
Variant W42E has an abundance fitness of -0.363 ± 0.13.
